Paper PMC4750968, “A Splice Variant of Bardet-Biedl Syndrome 5 (BBS5) Protein that Is Selectively Expressed in Retina” (PLoS ONE, 2016)
Each block holds one molecule with its values, some of them ahead of it.

Tests used:
Assay in all cases: pull-down; 6.6 uM I16C-Alexa546-ARR1 mixed with 0.1 uM BBS5L-GST, BBS5-GST or GST, overnight at 4°C; immunoprecipitated with anti-GST antibody on magnetic beads; fluorescence of the captured arrestin1 measured
[1] = target: BBS5L-GST (splice variant of BBS5 in fusion with glutathione-S-transferase) (mouse)
[2] = target: BBS5L-GST phosphorylated by protein kinase C (mouse)
[3] = target: T1, I16C-Alexa546-ARR1 (I16C-substituted bovine arrestin1 labeled with AlexaFluor-546) (bovine, UniProt P08168 1-404, I16C, AlexaFluor-546 on the reactive sulfhydryl group generated by I16C); settings: both partners purified
T1 construct: arrestin1 (S-arrestin), bovine, with the substitution I16C; also called ARR1-Alexa546; fluorescently labeled arrestin1
T1 sequence (P08168 whole entry I16C): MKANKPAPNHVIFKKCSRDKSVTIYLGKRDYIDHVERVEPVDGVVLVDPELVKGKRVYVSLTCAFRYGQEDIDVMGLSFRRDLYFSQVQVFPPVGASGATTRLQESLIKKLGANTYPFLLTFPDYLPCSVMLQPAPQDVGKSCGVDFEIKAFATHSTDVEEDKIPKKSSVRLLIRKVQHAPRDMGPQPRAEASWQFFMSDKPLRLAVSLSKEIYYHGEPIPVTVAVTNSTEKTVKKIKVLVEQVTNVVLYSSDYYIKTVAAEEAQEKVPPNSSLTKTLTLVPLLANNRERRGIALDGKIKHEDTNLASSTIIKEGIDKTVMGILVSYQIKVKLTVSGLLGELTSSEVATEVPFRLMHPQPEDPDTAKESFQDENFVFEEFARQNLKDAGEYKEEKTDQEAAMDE

amount of arrestin1 bound relative to BBS5 [1]: 0.5 fold of BBS5 | percent reduction of arrestin1 pull-down against unphosphorylated BBS5L [2]: 31%
Molecule: I16C-Alexa546-ARR1 (I16C-substituted bovine arrestin1 labeled with AlexaFluor-546) (from UniProt P08168 1-404) (natural protein)

binding result [3]: binds
B1: BBS5-GST (Bardet-Biedl Syndrome 5 protein in fusion with glutathione-S-transferase) (natural protein, mouse, UniProt Q9CZQ9 1-341, looked up)
chain: MSVLDVLWEDRDVRFDVSSQQMKTRPGEVLIDCLDSIEDTKGNNGDRGRLLVTNLRIIWHSLALPRVNLSIGYNCILNITTRTANSKLRGQTEALYILTKCNTTRFEFIFTNLVPGSPRLFTSVIAVHRAYETSKMYRDFKLRSAVIQNKQLRLLPQEHVYDKINGVWNLSSDQGNLGTFFITNVRIVWHANMNDSFNVSIPYLQIRSIKIRDSKFGLALVIESSQQSGGYVLGFKIDPVEKLQESVKEINSLHKVYSASPIFGVNYEMEEKPQPLEALTVEQIQDDVEIDSDDHTDAFVAYFADGNKQQDREPVFSEELGLAIEKLKDGFTLQGLWEVMS
notes: BBS5, mouse; open-reading frame amplified from murine retinal cDNA; cDNA for His-tagged BBS5 was cloned into pGEX-4T-1 at the EcoRI site, fused to the C-terminus of GST; not shown: GST, N-terminal, kept
